# Source: PMC6219724
# Experiments:
# [1] = molecular target: biotinylated Taxol-stabilized microtubules grown from bovine tubulin (bovine) (UniProt Q6B856); assay: single-molecule TIRF microscopy; biotinylated Taxol-stabilized microtubules tethered to the coverslip; 1.5 nM 549SNAP-tagged KKT4 in BRB80, 1 mg/ml κ-casein, 1 mM DTT, 10 µM Taxol; residence time, lattice diffusion and brightness of single particles
# [2] = molecular target: dynamic microtubules grown from coverslip-anchored GMPCPP-stabilized seeds with purified bovine brain tubulin (bovine) (UniProt Q6B856); assay: laser trap bead assay; protein held on streptavidin beads by biotinylated His5 antibody (60, 600, 6,500 nM); dynamic microtubules from coverslip-anchored seeds, 6 µM bovine brain tubulin; preload 0.8 ± 0.3 pN (3.3 ± 0.5 pN for Ndc80 complex), friction coefficient on the lattice, then force ramp of 0.25 pN/s until rupture of the tip attachment
substance,measurement,setting,value
"full-length charge-reversal mutant KKT4 (R123E, K132E, R154E), 549SNAP-tagged (natural protein)",fold change of the average residence time against wild-type KKT4,[1],2 fold shorter
same,fold change of the lattice diffusion against wild-type KKT4,[1],2 fold faster
"charge-reversal mutant KKT4 115-343 (R123E, K132E, R154E) (domain or fragment)",average rupture force of tip attachments,[2],1.6 pN
6HIS-KKT4 115-343 (domain or fragment),average rupture force of tip attachments,[2],2.1 pN
"full-length KKT4 fused with an N-terminal SNAP-6HIS-3FLAG tag, labeled with 549SNAP dye (natural protein)",average residence time,[1],5.4 s
same,diffusion coefficient on the microtubule lattice,[1],0.0071 µm^2/s
